Laboratory results taken from patent US20240287172A1 (SCIRHOM, published 2024).
Numbering of substitutions follows the chain as printed.

T1: hiR2-FL-L589P-T7 (human, UniProt Q6PJF5 1-856)
T1 sequence: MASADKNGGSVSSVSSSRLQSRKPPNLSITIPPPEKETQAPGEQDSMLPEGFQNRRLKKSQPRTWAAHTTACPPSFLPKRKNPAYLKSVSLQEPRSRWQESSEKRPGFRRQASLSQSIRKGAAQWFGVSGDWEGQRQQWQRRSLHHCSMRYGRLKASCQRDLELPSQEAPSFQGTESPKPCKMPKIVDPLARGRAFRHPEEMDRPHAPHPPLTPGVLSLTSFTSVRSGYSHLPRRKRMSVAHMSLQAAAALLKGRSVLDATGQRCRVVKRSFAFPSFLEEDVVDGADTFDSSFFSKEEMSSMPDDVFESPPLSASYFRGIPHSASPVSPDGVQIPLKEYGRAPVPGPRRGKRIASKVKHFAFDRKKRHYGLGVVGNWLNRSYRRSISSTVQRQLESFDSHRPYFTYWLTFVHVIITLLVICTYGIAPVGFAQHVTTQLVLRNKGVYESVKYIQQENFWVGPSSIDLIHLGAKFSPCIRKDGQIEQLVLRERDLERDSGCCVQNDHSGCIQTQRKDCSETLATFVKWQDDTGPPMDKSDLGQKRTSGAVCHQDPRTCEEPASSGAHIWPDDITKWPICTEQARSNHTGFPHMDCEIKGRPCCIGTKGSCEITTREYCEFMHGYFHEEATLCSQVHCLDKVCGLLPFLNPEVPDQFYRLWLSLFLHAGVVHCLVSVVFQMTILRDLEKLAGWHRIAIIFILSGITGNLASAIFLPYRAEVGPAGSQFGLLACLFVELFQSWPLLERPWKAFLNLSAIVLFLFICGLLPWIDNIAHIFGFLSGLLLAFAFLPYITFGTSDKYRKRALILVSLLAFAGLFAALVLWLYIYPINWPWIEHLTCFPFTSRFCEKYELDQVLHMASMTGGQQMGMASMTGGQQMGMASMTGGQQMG

B1: antibody 48 (antibody, V domains shown)
VH: QVQLQQSGTELVRPGTSVKVSCKASGYAFTNYLIEWVKQRPGQGLEWIGVINPGSGFTKYNEKFKGKATLTADKSSSTVYMHLSSLTSEDSAVYFCARGLYRAMDYWGQGTSVTVSS
VL: DIQMTQSPASQSASLGESVTITCLASQTIATWLAWYQQKPGKSPQLLIYGATTLADGVPSRFSGGGSGTKFSFKISSLQAEDFVSYYCQQLYSTPYTFGGGTKLEIK
notes: mouse IgG, kappa light chain; also called clone #48; purified antibody 48
B2: antibody 50 (antibody, V domains shown)
VH: B1 VH with T9A, T16A, T30S, V79A, H82Q
VL: B1 VL with A30G, G50A, T52A, T53S, S85N, L91I
notes: mouse IgG, kappa light chain; also called clone #50; purified antibody 50

Target: T1, hiR2-FL-L589P-T7
Experiment: FACS, MEF-DKO cells, 3 µg/ml
Procedure, shortened: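 MEF-DKO cells expressing T7-tagged full-length hiR2 point mutants were stained on ice for 1 h with purified antibodies at 3 μg/ml in FACS buffer. Detection used PE-conjugated goat anti-mouse IgG F(ab′)2 (1:100, 1 h on ice), read by flow cytometry; buffer-only wells served as controls.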

Row | Binder | loss of binding vs wild type [%]
1 | B1 | ≥ 60
2 | B2 | ≥ 95
